Results from patent publication US20110257076A1 (INDIANA UNIVERSITY RESEARCH AND TECHNOLOGY, published 2011).
Ends that are not written are not given here.

Experiments:
human IGF-1 receptor [1] = target: T1, human IGF-1 receptor (human, UniProt P08069 31-1367); test: cell-based or functional assay; set-up: EC50, total phosphorylation, Insulin Receptor (Mar. 31, 2008): unit not given beside the values
human insulin receptor [2] = target: T2, human insulin receptor (human, UniProt P06213 28-1382); test: cell-based or functional assay; set-up: EC50, total phosphorylation, Insulin Receptor (Mar. 31, 2008): unit not given beside the values
human insulin receptor [3] = target: T2, human insulin receptor; test: SPA competition vs [125I]-insulin, membranes with human insulin receptor (Example 3); Dec. 4, 2007
Method: (§1) Non-specifically bound (NSB) radioactivity was measured in the wells with a four-fold concentration excess of “cold” native ligand than the highest concentration in test samples. Total bound radioactivity was detected in the wells with no competitor. Percent specific binding was calculated as following: % Specific Binding=(Bound-NSB/Total bound-NSB)×100. IC50 values were determined by using Origin software (OriginLab, Northampton, Mass.).

human insulin receptor [4] = target: T2, human insulin receptor; test: SPA competition vs [125I]-insulin, membranes with human insulin receptor (Example 3); Jun. 5, 2008
Method: as §1

human insulin receptor [5] = target: T2, human insulin receptor; test: SPA competition vs [125I]-insulin, membranes with human insulin receptor (Example 3); Nov. 9, 2007
Method: as §1

human insulin receptor [6] = target: T2, human insulin receptor; test: SPA competition vs [125I]-insulin, membranes with human insulin receptor (Example 3); May 18, 2007
Method: as §1

human insulin receptor [7] = target: T2, human insulin receptor; test: SPA competition vs [125I]-insulin, membranes with human insulin receptor (Example 3); May 22, 2007
Method: as §1

human insulin receptor [8] = target: T2, human insulin receptor; test: SPA competition vs [125I]-insulin, membranes with human insulin receptor (Example 3); May 29, 2007
Method: as §1

human IGF-1 receptor [9] = target: T1, human IGF-1 receptor; test: SPA competition vs [125I]-IGF-1, membranes with human IGF-1 receptor (Example 3); Jun. 4, 2007
Method: as §1

human IGF-1 receptor [10] = target: T1, human IGF-1 receptor; test: SPA competition vs [125I]-IGF-1, membranes with human IGF-1 receptor (Example 3); Sep. 18, 2007
Method: as §1

B1: IGF-1 A:B (H5D10Y16L17) DPI (ligand)
chain 1: GIVDECCFRSCDLRRLEMYCA-NH2
chain 2: GPEHLCGADLVDALYLVCGDRGFY-NH2
modifications: disulfide (positions not given here); not fully specified (bridges)
- % IGF, total phosphorylation, IGF-1 Receptor (human IGF-1 receptor [1]): 7.1%

B2: IGF-1 A (H8 A9 N21):B(H5D10Y16L17 A22) DPI A-COOH (ligand)
chain 1: GIVDECCHASCDLRRLEMYCN-OH
chain 2: GPEHLCGADLVDALYLVCGDAGFY-NH2
modifications: disulfide (positions not given here); not fully specified (bridges)
- % IGF, total phosphorylation, IGF-1 Receptor (human IGF-1 receptor [1]): 7.7%

B3: IGF-1 A (H8 A9 N21):B(H5D10Y16L17) DPI A-COOH (ligand)
chain 1: GIVDECCHASCDLRRLEMYCN-OH
chain 2: GPEHLCGADLVDALYLVCGDRGFY-NH2
modifications: disulfide (positions not given here); not fully specified (bridges)
- % IGF, total phosphorylation, IGF-1 Receptor (human IGF-1 receptor [1]): 181%

B4: IGF-1 A:B(D10Y16L17) DPI A-COOH (ligand)
chain 1: GIVDECCFRSCDLRRLEMYCA-OH
chain 2: GPETLCGADLVDALYLVCGDRGFY-NH2
modifications: disulfide (positions not given here); not fully specified (bridges)
- % Insulin, total phosphorylation, Insulin Receptor (human insulin receptor [2]): 1580%
- % IGF, total phosphorylation, IGF-1 Receptor (human IGF-1 receptor [1]): 112%
- % native insulin activity (0.6 nM) (human insulin receptor [3]): 300%
- % native insulin activity (0.6 nM) (human insulin receptor [4]): 144%
- % native insulin activity (0.6 nM) (human insulin receptor [5]): 231%

B5: IGF-1 A:B(E10 Y16L17)-E31E32 B-COOH (ligand)
chain 1: GIVDECCFRSCDLRRLEMYCA-NH2
chain 2: GPETLCGAELVDALYLVCGDRGFYFNKPTEE-OH
modifications: disulfide (positions not given here); not fully specified (bridges)
- EC50, total phosphorylation, Insulin Receptor (Mar. 31, 2008) (human insulin receptor [2]): 7

B6: IGF-1 A:In (1-17)-IGF-1 B (18-30) (ligand)
chain 1: GIVDECCFRSCDLRRLEMYCA-NH2
chain 2: FVNQHLCGSHLVEALYLVCGDRGFYFNKPT-NH2
modifications: disulfide (positions not given here); not fully specified (bridges)
notes: The B chain is a chimera; The conversion is mine
- % native insulin activity (0.6 nM) (human insulin receptor [6]): 22.5%
- % insulin (in test) (human insulin receptor [7]): 14%
- % native insulin activity (0.6 nM) (human insulin receptor [7]): 21.7%
- % native insulin activity (0.6 nM) (human insulin receptor [8]): 24.2%

B7: IGF-1 A:B(E10Y16L17) (ligand)
chain 1: GIVDECCFRSCDLRRLEMYCA-NH2
chain 2: GPETLCGAELVDALYLVCGDRGFYFNKPT-NH2
modifications: disulfide (positions not given here); not fully specified (bridges)
- % Insulin, total phosphorylation, Insulin Receptor (human insulin receptor [2]): 49.2%
- EC50, total phosphorylation, Insulin Receptor (Mar. 31, 2008) (human insulin receptor [2]): 2.57
- % IGF, total phosphorylation, IGF-1 Receptor (human IGF-1 receptor [1]): 13%
- % IGF-1 (in test) (human IGF-1 receptor [9]): 6.8%
- % native IGF-1 activity (0.55 nM) (human IGF-1 receptor [9]): 7%
- % IGF-1 (in test) (human IGF-1 receptor [10]): 5%
- % native IGF-1 activity (0.55 nM) (human IGF-1 receptor [10]): 4.5%
- % insulin (in test) (human insulin receptor [7]): 58.7%
- % native insulin activity (0.6 nM) (human insulin receptor [7]): 90.9%
- % native insulin activity (0.6 nM) (human insulin receptor [8]): 118%
